Measurements published in article PMC6954390, “Negative cooperativity between Gemin2 and RNA provides insights into RNA selection and the SMN complex's release in snRNP assembly” (Nucleic Acids Research, 2019).

Experiments:
Gemin2 (full-length) = molecular target: T1, Gemin2 (full-length) (human, UniProt O14893 1-280); assay: crystal structure; Complexes A, B and C; hanging-drop vapor diffusion at 20°C, 1-6% PEG8000, 100 mM Tris-HCl pH 7.5-8.2; solved by molecular replacement with PDB 3S6N; details: both partners purified
T1 construct: Gemin2, human, full length; source: coexpressed with SMN_(Ge2BD) (pCDF-HT-Gemin2); not shown: His6, N-terminal, cleaved
T1 sequence (looked up): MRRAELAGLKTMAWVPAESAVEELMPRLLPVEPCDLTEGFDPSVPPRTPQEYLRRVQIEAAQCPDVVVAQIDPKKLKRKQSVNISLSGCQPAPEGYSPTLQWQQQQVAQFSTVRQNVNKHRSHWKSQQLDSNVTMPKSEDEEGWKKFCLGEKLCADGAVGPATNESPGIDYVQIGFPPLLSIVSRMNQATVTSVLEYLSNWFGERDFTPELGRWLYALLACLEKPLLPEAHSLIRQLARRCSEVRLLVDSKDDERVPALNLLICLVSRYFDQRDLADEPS

Gemin2ΔN39 = molecular target: T2, Gemin2ΔN39 (human, UniProt O14893 40-280); assay: as above; details: both partners purified
T2 construct: Gemin2, human, N-terminal 39 residues deleted (residues 40-280 left); also called Gemin2 residues 40–280; source: coexpressed with SMN_(Ge2BD) (pCDF-HT-Gemin2ΔN39); not shown: His6, N-terminal, cleaved
T2 sequence (looked up): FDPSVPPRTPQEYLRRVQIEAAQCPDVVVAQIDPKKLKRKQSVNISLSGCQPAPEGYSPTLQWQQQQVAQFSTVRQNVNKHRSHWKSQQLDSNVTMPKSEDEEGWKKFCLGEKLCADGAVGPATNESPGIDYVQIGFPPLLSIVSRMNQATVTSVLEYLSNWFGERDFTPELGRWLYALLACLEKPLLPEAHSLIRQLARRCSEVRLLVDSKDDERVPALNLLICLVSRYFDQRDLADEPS

binding result (Gemin2 (full-length)): binds
binding result (Gemin2ΔN39): binds
B1: SMN_(Ge2BD), SMN residues 26–62 (domain or fragment, human, UniProt Q16637 26-62, looked up)
chain: GQSDDSDIWDDTALIKAYDKAVASFKHALKNGDICET
notes: also called SMN(26-62); SMN (26–62) peptide; source: coexpressed with Gemin2 or Gemin2ΔN39 (pET21-HMT-SMN_(Ge2BD)); not shown: His6, N-terminal, cleaved; MBP, N-terminal, cleaved
